Assay results: PMC10658506

T1: human gp130-Fc, P40189
T1 chain: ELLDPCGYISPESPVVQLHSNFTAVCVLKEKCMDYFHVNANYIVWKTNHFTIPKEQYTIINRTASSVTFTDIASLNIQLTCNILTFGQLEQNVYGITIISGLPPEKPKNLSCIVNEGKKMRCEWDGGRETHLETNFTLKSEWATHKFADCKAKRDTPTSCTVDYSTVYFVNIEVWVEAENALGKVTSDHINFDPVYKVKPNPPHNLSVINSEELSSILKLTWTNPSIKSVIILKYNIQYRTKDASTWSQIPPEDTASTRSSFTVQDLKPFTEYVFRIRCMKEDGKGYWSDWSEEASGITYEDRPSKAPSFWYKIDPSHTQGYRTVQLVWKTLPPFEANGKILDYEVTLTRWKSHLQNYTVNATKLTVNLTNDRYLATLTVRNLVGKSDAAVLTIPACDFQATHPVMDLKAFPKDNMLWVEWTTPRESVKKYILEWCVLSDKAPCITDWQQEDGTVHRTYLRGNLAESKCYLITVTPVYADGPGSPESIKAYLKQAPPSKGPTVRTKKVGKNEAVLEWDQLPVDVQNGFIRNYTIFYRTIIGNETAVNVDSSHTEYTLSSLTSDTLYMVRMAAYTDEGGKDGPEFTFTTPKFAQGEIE

T2: yeast-displayed IL-11 L57P (human)
T2 sequence (P20809 22-199 with L57P, looked up): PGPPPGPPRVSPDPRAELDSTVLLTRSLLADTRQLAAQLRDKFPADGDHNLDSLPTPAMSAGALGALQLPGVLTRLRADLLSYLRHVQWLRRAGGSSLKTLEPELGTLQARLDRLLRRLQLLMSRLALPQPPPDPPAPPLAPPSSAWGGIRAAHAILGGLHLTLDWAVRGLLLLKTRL


Experiments:
human gp130-Fc, P40189 = target: T1, human gp130-Fc, P40189; test: flow cytometry on yeast-displayed IL-11; conditions: chain shown with the change, 100 nM IL-11R added, read off a plot
[1] = target: yeast-displayed IL-11 GIPR (human); test: flow cytometry on cells; yeast-displayed IL-11 variants incubated with varying concentrations of soluble IL-11R or mIL-11R overnight at room temperature, washed with BPBS; receptor detected with anti-his AF647, display with anti-c-myc; apparent Kd from the fraction bound of the expressing …
[2] = target: T2, yeast-displayed IL-11 L57P (human); test: as above
[3] = target: yeast-displayed IL-11 GIPR S60T (human); test: as above

Row | response (Normalized Fluorescence) (human gp130-Fc, P40189; 10 nM gp130-Fc) | response (Normalized Fluorescence) (human gp130-Fc, P40189; 100 nM gp130-Fc) | response (Normalized Fluorescence) (human gp130-Fc, P40189; 1000 nM gp130-Fc) | Kd [1] | fold improvement of apparent Kd over WT IL-11 [1] | Kd [2] | fold improvement in IL-11R binding over WT IL-11 [2] | Kd [3] | Binder
1 | 28000 | 35000 | 40000 | – | – | – | – | – | yeast-displayed wild-type human IL-11, P20809 D19G; T21I; L57P; G62R (protein) PGPPPGPPRVSPDPRAELGSIVLLTRSLLADTRQLAAQLRDKFPADGDHNLDSLPTPAMSARALGALQLPGVLTRLRADLLSYLRHVQWLRRAGGSSLKTLEPELGTLQARLDRLLRRLQLLMSRLALPQPPPDPPAPPLAPPSSAWGGIRAAHAILGGLHLTLDWAVRGLLLLKTRL
2 | – | – | – | 0.12 nM | 70 fold | 0.71 nM | 10 fold | – | soluble human IL-11 receptor extracellular domain, his-tagged (receptor) SPCPQAWGPPGVQYGQPGRSVKLCCPGVTAGDPVSWFRDGEPKLLQGPDSGLGHELVLAQADSTDEGTYICQTLDGALGGTVTLQLGYPPARPVVSCQAADYENFSCTWSPSQISGLPTRYLTSYRKKTVLGADSQRRSPSTGPWPCPQDPLGAARCVVHGAEFWSQYRINVTEVNPLGASTRLLDVSLQSILRPDPPQGLRVESVPGYPRRLRASWTYPASWPCQPHFLLKFRLQYRPAQHPAWSTVEPAGLEEVITDAVAGLPHAVRVSARDFLDAGTWSTWSPEAWGTPSTGTIPKEIPAWGQLHTQPEVEPQVDSPAPPRPSLQPHPRLLDHRDSVEQVAVLA
3 | – | – | – | 1.5 nM | – | – | – | 0.29 nM | soluble mouse IL-11 receptor (receptor) SPCPQAWGPPGVQYGQPGRPVMLCCPGVSAGTPVSWFRDGDSRLLQGPDSGLGHRLVLAQVDSPDEGTYVCQTLDGVSGGMVTLKLGFPPARPEVSCQAVDYENFSCTWSPGQVSGLPTRYLTSYRKKTLPGAESQRESPSTGPWPCPQDPLEASRCVVHGAEFWSEYRINVTEVNPLGASTCLLDVRLQSILRPDPPQGLRVESVPGYPRRLHASWTYPASWRRQPHFLLKFRLQYRPAQHPAWSTVEPIGLEEVITDAVAGLPHAVRVSARDFLDAGTWSAWSPEAWGTPSTGPLQDEIPDWSQGHGQQLEAVVAQEDSPAPARPSLQPDPRPLDHRDPLEQVAVLA
